T1: GST-PIL15 (Oryza sativa, UniProt Q0JNI9 1-637)
T1 sequence: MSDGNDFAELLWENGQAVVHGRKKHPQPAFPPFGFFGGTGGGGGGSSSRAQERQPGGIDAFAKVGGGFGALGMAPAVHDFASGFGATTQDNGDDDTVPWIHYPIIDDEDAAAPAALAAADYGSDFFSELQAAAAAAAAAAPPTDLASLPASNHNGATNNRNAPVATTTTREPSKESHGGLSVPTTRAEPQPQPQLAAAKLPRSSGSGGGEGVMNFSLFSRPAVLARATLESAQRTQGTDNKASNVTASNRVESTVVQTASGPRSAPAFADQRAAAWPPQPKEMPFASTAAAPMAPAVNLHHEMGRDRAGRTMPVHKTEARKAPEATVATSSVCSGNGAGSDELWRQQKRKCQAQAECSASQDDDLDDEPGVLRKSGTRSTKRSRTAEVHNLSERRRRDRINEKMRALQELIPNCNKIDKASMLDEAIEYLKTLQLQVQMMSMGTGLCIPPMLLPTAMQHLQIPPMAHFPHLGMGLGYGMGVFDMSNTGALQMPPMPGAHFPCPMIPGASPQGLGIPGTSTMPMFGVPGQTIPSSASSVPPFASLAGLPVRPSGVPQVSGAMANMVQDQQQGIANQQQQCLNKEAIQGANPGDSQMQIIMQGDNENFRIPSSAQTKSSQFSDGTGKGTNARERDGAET

B1: pAMT1;2-PBE (dsDNA)
DNA 1: ACCAAAACACATGAAATCCT
DNA 2: AGGATTTCATGTGTTTTGGT
B2: pDEP1-PBE (dsDNA)
DNA 1: GATGCACACATGAAGATCGT
DNA 2: ACGATCTTCATGTGTGCATC
B3: pNRT1.1B-PBE (dsDNA)
DNA 1: ACACACACATGTGTTGTAAT
DNA 2: ATTACAACACATGTGTGTGT

The binders below were run against T1, GST-PIL15 (assay: EMSA; Chemiluminescent EMSA kit (Thermo Fisher); buffer, salt, pH and temperature not stated). Conditions: protein: recombinant; tags: N-terminal GST (pGEX-5X-1); chain copies: 2; label: biotin (ends); blunt.

Row | Binder | binding result
1 | B1 | binds
2 | B2 | binds
3 | B3 | binds
